Experiments:
[1] = Stability in labeling medium (water/ascorbic acid/sodium acetate) by radio-HPLC; type: physicochemical; settings: injectable-grade water/ascorbic acid/sodium acetate; 72 h after labeling (225Ac-HEHA: 72 h after purification); reversed-phase C18 radio-HPLC (225Ac: 1 mL fractions counted in NaI(Tl) detector)
Procedure: (§1) The radiochemical purity of the radioconjugates was determined by reversed-phase HPLC (Waters) with radiometric and UV-vis detectors. The analysis was carried out with a Discovery C18 column (particle size: 5 µm, length: 25 cm, diameter: 4.6 mm). A linear gradient (rate flow: 1 mL/min) of CH3CN-0.1% TFA (B)/H2O-0.1%TFA (A), from 100% to 10% of A in 30 min, was used. For ^225Ac-HEHA-PD-L1-i, fractions of 1.0 mL were collected, and the activity was evaluated in a NaI(Tl) detector (Auto In-v-tron 4010; NML Inc., Houston, TX, USA).
(§2) The ^225Ac-HEHA-PD-L1-i and ^177Lu-DOTA-PD-L1-i stability was evaluated in the medium they were obtained after labeling (water/ascorbic acid/sodium acetate) at 0.33, 3, 24, 48, and 72 h with radio-HPLC, as previously described. The conjugate solutions were diluted in human serum (5x) for stability assessment. The conjugates (n = 3) were incubated at 37 °C, and samples were taken at 0.33, 3, 24, 48, and 72 h.

[2] = Serum stability by radio-HPLC; type: in vitro ADME, human
Procedure: as §1, §2

[3] = system: HCC827 human lung cancer cells (PD-L1 positive) vs C6 mouse glioma cells (PD-L1 negative); assay: Cellular uptake assay; type: cell-based; settings: 1 × 10^5 cells/tube in PBS pH 7, 37 °C, 1 h; 177Lu 4 kBq, 225Ac 0.04 kBq; NaI(Tl) counting; n = 6 / n = 3 (method)
Procedure: HCC827 human lung cancer (PD-L1 positive) and C6 mouse glioma (PD-L1 negative) cell lines were cultured in RPMI-1640 medium with penicillin and streptomycin (100 µg/mL) and fetal bovine serum (15%) in 5% CO2 at 37 °C. Cells diluted in PBS (pH 7) (1 × 10^5 cells/tube) received two different treatments: (a) ^177Lu-DOTA-PD-L1-i (4 kBq) (n = 3) and (b) ^225Ac-HEHA-PD-L1-i (0.04 kBq) (n = 3). Cells were incubated with each treatment at 37 °C for 1 h. After incubation, tubes were measured in a NaI(Tl) detector to determine the initial activity (100%). The tubes were centrifuged at 500× g for 10 min. Then, a mixture of acetic acid/0.5 M NaCl was added, and the centrifugation was repeated. The liquid was removed, and the button activity was measured, corresponding to the percentage of activity captured by the cells regarding the initial activity.

HCC827 cells = assay: Cell viability assay (flow cytometry, Muse Count & Viability Kit); type: cell-based, human; settings: 5 h
Procedure: The effect of ^177Lu DOTA-PD-L1-i, ^225Ac-HEHA-PD-L1-i, and PD-L1-i on HCC827 cell viability (5 × 10^4) was determined by flow cytometry with the Muse® Count & Viability Kit from Luminex, DiaSorin, USA. Before taking readings with the Muse Cell Analyzer (Merck Millipore, Burlington, MA, USA) previously calibrated with the Muse® System Check kit, the baseline detection was established using a fresh sample of untreated cells that served to delimit the size and granularity of the cell line, as well as the basal viability of the population. Also, the reading window for dead cells was established using an aliquot of the same population treated with 0.5% Triton-X100. Once the detection window for the HCC827 cells was established to discriminate between live and dead cells, 50 µL (2 × 10^4 cells/200 µL) were taken from the cell suspension that had been treated with cold ligand (PD-L1-i, 0.1 µg), with 1.4 MBq of ^177Lu DOTA-PD-L1-i or 0.37 kBq of ^225Ac-HEHA-PD-L1-i for 5 h and then mixed with 450 µL of the viability reagent; after 5 min incubation at room temperature and in the dark, the samples were read in triplicate. For the calculation of the radiation absorbed dose to cell nuclei, the total number of nuclear transformations (N) normalized to the unit of administered activity (Bq^.s/Bq) was obtained with the A(t) mathematical integration (from t = 0 to t = 5 h). […]

healthy mice = assay: Biodistribution in healthy mice; type: in vivo, Nu/Nu mice; settings: tail vein, 3.7 MBq 177Lu or 3.7 kBq 225Ac, 0.5-96 h, n = 3
Procedure: (§3) Under an approved protocol (No. 07-2018-2021), all animal procedures followed the ethical regulations for handling laboratory animals (NOM-062-ZOO-1999) and the Institutional Animal Care and Use Committee requirements. Male Nu/Nu (UPEAL, […], I.PN., Mexico City, Mexico) mice aged 6–8 weeks were maintained in a pathogen-free barrier facility. Mice were injected with 3.7 MBq (50 µL) of ^177Lu DOTA-PD-L1-I or 3.7 kBq (50 µL) of ^225Ac-HEHA-PD-L1-i in the tail vein and sacrificed at 0.5, 1, 3, 24, 72, and 96 h (n = 3). The heart, lungs, liver, pancreas, spleen, kidneys, small intestine, brain, and stomach were dissected to be measured in a NaI(Tl) radioactivity detector. The results are expressed as the percentage of injected dose (%ID) per organ. Blood samples were also extracted, and the activity was recorded as %ID/g. A second group of mice was inoculated intravenously with 1 × 10^6 HCC827 cells. The animals were treated with 3.7 MBq (50 µL) of ^177Lu DOTA-PD-L1-i (n = 3) or 3.7 kBq (50 µL) of ^225Ac-HEHA-PD-L1-i (n = 3) via tail vein injection on day five post-tumor cell inoculation. The animals were dissected as described above. In the case of ^177Lu DOTA-PD-L1-i, radioisotopic/X-ray in vivo/ex vivo images were obtained in a Preclinical Imaging System (Bruker, XTREME). For in vivo imaging, mice were anesthetized with oxygen and 2% isoflurane.

[4] = system: mice intravenously injected with HCC827 lung cancer cells (PD-L1+); assay: Biodistribution and biokinetic models in mice with HCC827 lung micrometastases; type: in vivo, Nu/Nu mice
Procedure: as §3
The %ID values were used to obtain the biokinetic models ( qht ). The Ah(t) functions were obtained by decay-correcting the biokinetic models, that is, by adding to the biological constant (λB ) the radioactive constant (λR ), as follows (Equation (1)):(1) At=Be^−(λR+λB)t+Ce^−(λR+λB)t+De^−(λR+λB)t

[5] = system: lungs of athymic mice with or without HCC827 lung micrometastases; assay: Radioisotopic/X-ray imaging; type: in vivo
Procedure: as §3

[6] = system: kidney and liver tissues from mice; assay: Histopathological assessment (H&E); type: in vivo
Procedure: Healthy lungs, kidneys, liver, and lungs from mice injected i.v. with HCC827 cells were fixed with 4% paraformaldehyde for 24 h at room temperature, embedded in paraffin, and sectioned in 4–5 µm thick sections using a microtome. Paraffin sections of lung samples were deparaffinized in xylene and rehydrated in a series of graded alcohols. Dewaxed tissue sections were stained with hematoxylin and eosin (H&E). The sections were assessed using a light microscope (magnification of 100x) (Zeiss; Mod. Axioscope: Oberkochen, Germany). Images were acquired with a digital camera (5 MP high-speed color; AmScope; Mod.Mu500: Irvine, CA, USA).

[7] = system: mice inoculated with HCC827 lung cancer cells; assay: Creatinine and liver enzyme levels; type: in vivo
Procedure: Mouse blood samples collected at 96 h after radiopharmaceutical administration were used for the determination of alanine aminotransferase (ALT), creatinine, and aspartate aminotransferase (AST). Creatinine was measured titrimetrically. The picrate method was used. AST and ALT were quantified using a Roche Diagnostics kit for UV assays.

[8] = lungs invaded with HCC827 cancer cells
[9] = ex vivo lungs, radioisotopic imaging

SMILES: CCCC[C@H]1C(=O)N(C)[C@@H](CCCC)C(=O)N[C@@H](CCCNC(=S)Nc2ccc(C[C@H]3CN(CC(=O)O)CCN(CC(=O)O)CCN(CC(=O)O)CCN3CC(=O)O)cc2)C(=O)N[C@H](C(=O)NCC(N)=O)CSCC(=O)N[C@@H](Cc2ccc(O)cc2)C(=O)N(C)[C@@H](C)C(=O)N[C@@H](CC(N)=O)C(=O)N2CCC[C@H]2C(=O)N[C@@H](Cc2c[nH]cn2)C(=O)N[C@@H](CC(C)C)C(=O)N2C[C@H](O)C[C@H]2C(=O)N[C@@H](Cc2c[nH]c3ccccc23)C(=O)N[C@@H](CO)C(=O)N[C@@H](Cc2cn(C)c3ccccc23)C(=O)N1C [^177Lu-DOTA-PD-L1-i, metal not drawn]
- radiochemical purity after 72 h in water [1]: greater than 97.5 ± 0.5%
- remaining at 72 h ([2]; diluted in human serum (5x), 37 °C, 72 h, reversed-phase C18 radio-HPLC, n = 3, read-out: radiochemical purity after 72 h in human serum): > 97.5%
- uptake in HCC827 cells relative to C6 cells [3]: approximately fourteen
- net decrease in alive cells regarding the control group (representative histogram) (HCC827 cells; 177Lu 15 Gy, 225Ac 5 Gy): 30%
- net decrease viability (HCC827 cells; 177Lu-DOTA-PD-L1-i 15 Gy (1.4 MBq/20,000 cells), 225Ac-HEHA-PD-L1-i 5 Gy (0.37 kBq/20,000 cells), PD-L1-i 0.1 µg/20,000 cells, read in triplicate): 31.42 ± 2.01%
- biodistribution profile in healthy mice (healthy mice): rapid blood clearance with renal and hepatobiliary elimination and no accumulation in normal tissues
- λ, kidney, fast phase ([4]; kidneys, biokinetic model): 3.65
- λ, kidney, slow elimination slope ([4]; kidneys, biokinetic model): 0.009
- half-life, kidney, slow elimination slope ([4]; kidneys, t1/2 = ln2/λ): 77 h
- half-life, kidney, fast phase ([4]; kidneys, t1/2 = ln2/λ, 177Lu 3.7 MBq, 225Ac 3.7 kBq i.v.): 0.19 h
- λ, liver, fast phase ([4]; liver, biokinetic model): 1.23
- λ, liver, slow phase ([4]; liver, biokinetic model): 0.01
- fraction of activity taken up in the liver cleared rapidly ([4]; liver, fast phase (hepatobiliary elimination), 3.7 MBq i.v.): seventy-four
- fraction of activity taken up in the liver cleared slowly ([4]; liver, slow phase): twenty-six
- half-life, liver, fast phase ([4]; liver, t1/2 = ln2/λ): 0.56 h
- half-life, liver, slow phase ([4]; liver, t1/2 = ln2/λ, 177Lu 3.7 MBq, 225Ac 3.7 kBq i.v.): 69 h
- fraction of lung uptake activity with the long half-life [4, 8]: Ninety
- fraction of lung uptake activity with the short half-life [4, 8]: ten
- half-life, lung, long component [4, 8]: 346.5 h
- half-life, lung, short component [4, 8]: 17.3 h
- lung uptake pattern, average number of emitted photons per normalized area, mice in which metastases were not induced [5, 9]: 78 ± 32 photons/cm^2
- lung uptake pattern, average number of emitted photons per normalized area, mice with metastatic HCC827 cells [5, 9]: 298 ± 82 photons/cm^2
- tissue accumulation in radioisotopic images ([5]; in vivo and ex vivo, athymic mice with lung micrometastases, 30 min, 24 and 72 h): the only tissue that accumulated the radiotracer was the lung invaded by HCC827 cancer cells
- histological staining (H&E) of liver and kidney ([6]; mice exposed to the radiopharmaceuticals): no pathologic changes in the liver and kidney
- Creatinine ([7]; 96 h after 3.7 MBq 177Lu or 3.7 kBq 225Ac, day 5 after i.v. HCC827 inoculation, mean ± SD, n = 3, control 0.198 ± 0.057): 0.199 ± 0.062 mg/dL
- Alanine Aminotransferase (ALT) ([7]; 96 h after 3.7 MBq 177Lu or 3.7 kBq 225Ac, day 5 after i.v. HCC827 inoculation, mean ± SD, n = 3, control 71 ± 7): 68 ± 4 IU/L
- Aspartate Aminotransferase (AST) ([7]; 96 h after 3.7 MBq 177Lu or 3.7 kBq 225Ac, day 5 after i.v. HCC827 inoculation, mean ± SD, n = 3, control 150 ± 13): 143 ± 14 IU/L
- effect on the function of liver and kidney ([7]; ALT, creatinine, AST vs control group (Table A1)): No significant cytotoxic effect

SMILES: CCCC[C@H]1C(=O)N(C)[C@@H](CCCC)C(=O)N[C@@H](CCCNC(=S)Nc2ccc(CC3CN(CC(=O)O)CCN(CC(=O)O)CCN(CC(=O)O)CCN(CC(=O)O)CCN(CC(=O)O)CCN3CC(=O)O)cc2)C(=O)N[C@H](C(=O)NCC(N)=O)CSCC(=O)N[C@@H](Cc2ccc(O)cc2)C(=O)N(C)[C@@H](C)C(=O)N[C@@H](CC(N)=O)C(=O)N2CCC[C@H]2C(=O)N[C@@H](Cc2c[nH]cn2)C(=O)N[C@@H](CC(C)C)C(=O)N2C[C@H](O)C[C@H]2C(=O)N[C@@H](Cc2c[nH]c3ccccc23)C(=O)N[C@@H](CO)C(=O)N[C@@H](Cc2cn(C)c3ccccc23)C(=O)N1C (stereo partly shown) [^225Ac-HEHA-PD-L1-i, metal not drawn]
- radiochemical purity after 72 h in human serum [2]: 64 ± 4%
- rate of decrease of radiochemical purity in human serum [2]: approximately 0.388 %/h
- Ac-225 activity present in bone ([4]; mouse, in vivo): 0.3 ± 0.2 % ID/g
- biokinetic model A(t), kidney ([4]; mouse, in vivo): 12.60e^-3.65t + 8.14e^-2.54t
- biokinetic model A(t), liver ([4]; mouse, in vivo): 25.3e^-1.90t + 17.4e^-0.01t
- biokinetic model A(t), lung (HCC827 cancer cells) ([4]; mouse, in vivo): 11.20e^-0.002t + 1.73e^-1.20t
- half-life, kidney, second component ([4]; mouse, in vivo): 0.27 h
- injected dose in kidney eliminated with half-life 0.19 h ([4]; mouse, in vivo): 12.6 % of the injected dose
- injected dose in kidney eliminated with half-life 0.27 h ([4]; mouse, in vivo): 8.14 % of the injected dose
- injected dose retained in liver and eliminated with the slow half-life ([4]; mouse, in vivo): 17.4 % of the injected dose
- half-life, kidney, fast phase ([4]; mouse, in vivo, iv): 0.19 h
- half-life, liver, slow phase ([4]; mouse, in vivo, iv): 69.3 h
- uptake in lung micrometastases ([4]; mouse, in vivo, iv): > 30 % ID
- histological staining (H&E) of liver and kidney ([6]; mouse, in vivo): no pathologic changes in the liver and kidney
- effect on the function of liver and kidney ([7]; mouse, in vivo): No significant cytotoxic effect

From publication PMC10418980, “Synthesis and Evaluation of ^177Lu-DOTA-PD-L1-i and ^225Ac-HEHA-PD-L1-i as Potential Radiopharmaceuticals for Tumor Microenvironment-Targeted Radiotherapy” (International Journal of Molecular Sciences, 2023)
